According to paper PMC9481612, “Molecular architecture of the augmin complex” (Nature Communications, 2022):

T1: HAUS6 N-terminal region (a.a. 1–432) (human, UniProt Q7Z4H7 1-432)
T1 construct: HAUS6, human, N-terminal region a.a; 1-432 (C-terminal region H6C, a.a. 433-955, deleted); also called H6N; H6 in augmin^ΔH6C; source: High5 insect cells, co-infected with baculoviruses; purified as part of the augmin^ΔH6C octamer (StrepII-Trap, Superose 6)
T1 sequence (looked up): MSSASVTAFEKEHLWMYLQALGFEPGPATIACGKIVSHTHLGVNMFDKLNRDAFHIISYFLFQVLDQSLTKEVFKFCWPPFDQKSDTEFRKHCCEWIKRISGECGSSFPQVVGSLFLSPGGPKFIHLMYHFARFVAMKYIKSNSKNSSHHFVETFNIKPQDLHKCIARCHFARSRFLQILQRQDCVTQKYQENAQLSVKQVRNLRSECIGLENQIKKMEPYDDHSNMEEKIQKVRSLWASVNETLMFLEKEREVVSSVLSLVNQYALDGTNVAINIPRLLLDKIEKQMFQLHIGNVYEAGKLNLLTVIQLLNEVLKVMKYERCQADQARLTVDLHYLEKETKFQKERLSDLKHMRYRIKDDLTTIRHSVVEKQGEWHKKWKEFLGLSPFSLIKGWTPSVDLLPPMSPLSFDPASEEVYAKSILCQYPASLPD

T2: HAUS5 (human, UniProt O94927 1-633)
T2 construct: HAUS5, human; 633; also called H5; source: High5 insect cells, co-infected with baculoviruses; purified as part of the augmin octamer (StrepII-Trap, Superose 6)
T2 sequence (looked up): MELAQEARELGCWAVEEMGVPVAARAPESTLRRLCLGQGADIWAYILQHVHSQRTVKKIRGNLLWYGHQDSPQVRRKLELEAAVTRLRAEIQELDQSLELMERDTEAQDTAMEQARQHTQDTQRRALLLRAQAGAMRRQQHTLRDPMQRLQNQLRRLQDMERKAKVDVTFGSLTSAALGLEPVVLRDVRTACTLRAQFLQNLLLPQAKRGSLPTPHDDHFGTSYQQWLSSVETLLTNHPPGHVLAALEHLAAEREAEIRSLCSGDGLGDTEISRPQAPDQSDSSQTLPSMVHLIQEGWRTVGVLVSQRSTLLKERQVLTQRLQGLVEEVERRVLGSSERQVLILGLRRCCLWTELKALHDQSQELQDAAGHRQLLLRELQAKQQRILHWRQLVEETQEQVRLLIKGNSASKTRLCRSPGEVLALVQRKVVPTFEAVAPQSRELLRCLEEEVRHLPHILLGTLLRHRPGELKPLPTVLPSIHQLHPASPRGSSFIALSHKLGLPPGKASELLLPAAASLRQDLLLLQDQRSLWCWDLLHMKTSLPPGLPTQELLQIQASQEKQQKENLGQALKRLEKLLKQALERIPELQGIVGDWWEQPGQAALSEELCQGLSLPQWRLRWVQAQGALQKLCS

B1: HAUS8 (natural protein, human, UniProt Q9BT25 1-410, looked up)
chain: MADSSGRGAGKPATGPTNSSSAKKKDKRVQGGRVIESRYLQYEKKTTQKAPAGDGSQTRGKMSEGGRKSSLLQKSKADSSGVGKGDLQSTLLEGHGTAPPDLDLSAINDKSIVKKTPQLAKTISKKPESTSFSAPRKKSPDLSEAMEMMESQTLLLTLLSVKMENNLAEFERRAEKNLLIMCKEKEKLQKKAHELKRRLLLSQRKRELADVLDAQIEMLSPFEAVATRFKEQYRTFATALDTTRHELPVRSIHLEGDGQQLLDALQHELVTTQRLLGELDVGDSEENVQVLDLLSELKDVTAKKDLELRRSFAQVLELSAEASKEAALANQEVWEETQGMAPPSRWYFNQDSACRESGGAPKNTPLSEDDNPGASSAPAQATFISPSEDFSSSSQAEVPPSLSRSGRDLS
notes: HAUS8, human; 410; a.a; 1-138 and 340-410 are not seen in the cryo-EM map; also called H8; source: High5 insect cells, co-infected with baculoviruses; purified as part of the augmin octamer (StrepII-Trap, Superose 6)
B2: HAUS3 (natural protein, human, UniProt Q68CZ6 1-603, looked up)
chain: MSCGNEFVETLKKIGYPKADNLNGEDFDWLFEGVEDESFLKWFCGNVNEQNVLSERELEAFSILQKSGKPILEGAALDEALKTCKTSDLKTPRLDDKELEKLEDEVQTLLKLKNLKIQRRNKCQLMASVTSHKSLRLNAKEEEATKKLKQSQGILNAMITKISNELQALTDEVTQLMMFFRHSNLGQGTNPLVFLSQFSLEKYLSQEEQSTAALTLYTKKQFFQGIHEVVESSNEDNFQLLDIQTPSICDNQEILEERRLEMARLQLAYICAQHQLIHLKASNSSMKSSIKWAEESLHSLTSKAVDKENLDAKISSLTSEIMKLEKEVTQIKDRSLPAVVRENAQLLNMPVVKGDFDLQIAKQDYYTARQELVLNQLIKQKASFELLQLSYEIELRKHRDIYRQLENLVQELSQSNMMLYKQLEMLTDPSVSQQINPRNTIDTKDYSTHRLYQVLEGENKKKELFLTHGNLEEVAEKLKQNISLVQDQLAVSAQEHSFFLSKRNKDVDMLCDTLYQGGNQLLLSDQELTEQFHKVESQLNKLNHLLTDILADVKTKRKTLANNKLHQMEREFYVYFLKDEDYLKDIVENLETQSKIKAVSLED
notes: HAUS3, human; 603; also called H3; source: High5 insect cells, co-infected with baculoviruses; purified as part of the augmin octamer (StrepII-Trap, Superose 6)

What was measured:
[1] = biological target: T1, HAUS6 N-terminal region (a.a. 1–432); experiment: cross-linking; purified augmin^ΔH6C with DSSO at 250:1, 500:1, 750:1 and 1000:1 molar ratio, 1 h on ice; trypsin in gel or in solution, LC-MS/MS, MetaMorpheus, 1% FDR; settings: both partners purified
HAUS5 = biological target: T2, HAUS5; experiment: as above; settings: both partners purified

Binder | binding result [1] | binding result (HAUS5)
B1 | binds | 
B2 |  | binds
